{
  "source": "paper PMC11575137",
  "about": "(BMC Biology, 2024)",
  "molecules": {"B1": {"name": "GRB10: potential KRAS-interacting protein, UniProt Q13322 (protein, UniProt Q13322 1-594, looked up)", "Growth factor receptor-bound …": "MALAGCPDSFLHHPYYQDKVEQTPRSQQDPAGPGLPAQSDRLANHQEDDVDLEALVNDMNASLESLYSACSMQSDTVPLLQNGQHARSQPRASGPPRSIQPQVSPRQRVQRSQPVHILAVRRLQEEDQQFRTSSLPAIPNPFPELCGPGSPPVLTPGSLPPSQAAAKQDVKVFSEDGTSKVVEILADMTARDLCQLLVYKSHCVDDNSWTLVEHHPHLGLERCLEDHELVVQVESTMASESKFLFRKNYAKYEFFKNPMNFFPEQMVTWCQQSNGSQTQLLQNFLNSSSCPEIQGFLHVKELGKKSWKKLYVCLRRSGLYCSTKGTSKEPRHLQLLADLEDSNIFSLIAGRKQYNAPTDHGLCIKPNKVRNETKELRLLCAEDEQTRTCWMTAFRLLKYGMLLYQNYRIPQQRKALLSPFSTPVRSVSENSLVAMDFSGQTGRVIENPAEAQSAALEEGHAWRKRSTRMNILGSQSPLHPSTLSTVIHRTQHWFHGRISREESHRIIKQQGLVDGLFLLRDSQSNPKAFVLTLCHHQKIKNFQILPCEDDGQTFFSLDDGNTKFSDLIQLVDFYQLNKGVLPCKLKHHCIRVAL"}},
  "molecular_target": "KRAS^G12D mutant",
  "test": "BLI binding kinetics assay, KRAS G12D mutant",
  "settings": "protein-protein; BLI (Fig. S5)",
  "data": [
    {"molecule": "B1", "values": [
      {"measurement": "Kd", "result": 51, "unit": "µM"}
    ]}
  ]
}
